Target: human claudin18.2 (Claudin 18.2, Genbank NP_001002026) (human)
Assay: cell-based or functional assay

ADCC effect IC50, FcrR3A-V158-NFAT-RE-Jurkat reporter luminescence, NUGC4 cells with high claudin18.2 expression | ADCC effect IC50, FcrR3A-V158-NFAT-RE-Jurkat reporter luminescence, NUGC4 cells with low claudin18.2 expression | ADCC effect IC50, FcrR3A-V158-NFAT-RE-Jurkat reporter luminescence, NUGC4 cells with moderate claudin18.2 expression | Binder
0.0262 µg/mL | 0.0224 µg/mL | 0.0154 µg/mL | humanized antibody h1901-11 (antibody, human IgG1, kappa, V domains shown) VH: EVQLVESGGGLVQPGGSLRLSCAASGFTFSDYGIHWVRQAPGKGLEWIAYISRGSSTIYYADTVKGRFTISRDNAKNSLYLQMTSLRAEDTAVYYCARGGYDTRNAMDYWGQGTTVTVSS VL: DIVMTQSPDSLAVSLGERATISCKSSQSLLNSGNQKNYLAWYQQKPGQPPKLLIYGASTRASGVPDRFSGSGSGTDFTLTISSLQAEDVAIYHCQNDLYYPLTFGQGTKLEIKR
0.133 µg/mL | 0.183 µg/mL | 0.21 µg/mL | IMAB-362 (positive control antibody, from WO2016166122) (antibody, human IgG1, kappa, V domains shown) VH: QVQLQQPGAELVRPGASVKLSCKASGYTFTSYWINWVKQRPGQGLEWIGNIYPSDSYTNYNQKFKDKATLTVDKSSSTAYMQLSSPTSEDSAVYYCTRSWRGNSFDYWGQGTTLTVSS VL: DIVMTQSPSSLTVTAGEKVTMSCKSSQSLLNSGNQKNYLTWYQQKPGQPPKLLIYWASTRESGVPDRFTGSGSGTDFTLTISSVQAEDLAVYYCQNDYSYPFTFGSGTKLEIKR

From US20230054458A1 (JIANGSU HENGRUI MEDICINE, published 2023)
